Tests used:
[1] = target: variant of repaired and stabilized Du422 construct (HIV161818) with the additional K655I substitution (HIV-1 strain Du422 (clade C)); assay: assay not named in Example 11; trimer yield as defined in Example 3 (PGT145 AlphaLISA signal)
[2] = target: ConC_SOSIP with E64K, T316W double substitution (HIV-1 clade C consensus (artificial)); assay: AlphaLISA on crude supernatant: PGT145 signal divided by total Env signal (His/Flag beads)
[3] = target: ConC_SOSIP with disulfide double substitution I204C, A433C (HIV-1 clade C consensus (artificial)); assay: as above
[4] = target: variant of repaired and stabilized Du422 construct (HIV161818) with the additional K655I substitution (HIV-1 strain Du422 (clade C)); assay: assay not named in Example 11; trimer percentage as defined in Example 3 (PGT145 AlphaLISA signal over total Env signal)
[5] = target: C97ZA_SOSIP_L556P_T651F_M535N (HIV-1 strain C97ZA (clade C)); assay: AlphaLISA on crude supernatant as in Example 3: normalized PGT145 signal

mAb PGT145 (antibody)
trimer yield, fold over the variant of SEQ ID NO: 25 without K655I [1]: 1.3 fold
percentage of trimer formation [2]: 15%
percentage of trimer formation [3]: 43%
trimer percentage, fold over the variant of SEQ ID NO: 25 without K655I [4]: 1.4 fold
trimer yield, fold over the C97ZA SOSIP backbone [5]: 5 fold
